Data set [1] addresses T1, PyrKII (P. falciparum pyruvate kinase II; His-PyrKII) (Plasmodium falciparum, UniProt Q8IJ37).
T1 construct: gene PF3D7_1037100; residues 42-745 (predicted mature protein, apicoplast trafficking peptide removed); synthetic codon-harmonized gene; MBP-TEV-His6 fusion from E. coli BL21 Star (DE3), MBP cut by TEV, N-terminal His6 kept; 83,014 Da
T1 sequence (Q8IJ37 42-745): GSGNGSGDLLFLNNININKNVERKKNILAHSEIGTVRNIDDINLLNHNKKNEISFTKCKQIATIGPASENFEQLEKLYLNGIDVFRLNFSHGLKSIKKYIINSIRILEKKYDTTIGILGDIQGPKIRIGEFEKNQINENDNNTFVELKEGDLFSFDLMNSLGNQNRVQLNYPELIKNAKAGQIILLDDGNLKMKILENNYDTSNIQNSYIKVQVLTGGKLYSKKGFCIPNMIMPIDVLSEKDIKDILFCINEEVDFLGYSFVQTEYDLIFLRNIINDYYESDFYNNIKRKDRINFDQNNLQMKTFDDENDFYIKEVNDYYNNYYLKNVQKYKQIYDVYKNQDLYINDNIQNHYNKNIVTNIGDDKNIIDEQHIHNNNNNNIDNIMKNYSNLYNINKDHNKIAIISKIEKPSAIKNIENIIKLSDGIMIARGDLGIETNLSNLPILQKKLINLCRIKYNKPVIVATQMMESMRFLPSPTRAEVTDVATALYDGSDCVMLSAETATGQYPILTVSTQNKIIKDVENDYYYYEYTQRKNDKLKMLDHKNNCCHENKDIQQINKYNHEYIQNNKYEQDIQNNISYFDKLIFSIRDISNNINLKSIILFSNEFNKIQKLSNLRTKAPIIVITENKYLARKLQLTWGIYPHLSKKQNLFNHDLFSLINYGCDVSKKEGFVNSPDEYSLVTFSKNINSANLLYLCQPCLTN
Put plainly: LDH-coupled spectrophotometric assay, NADH oxidation at […] nm. It is filed as biochemical. The settings on record: 3 mM ADP, PEP 0-20 mM, 10 mM MgCl2, 50 mM KCl, 26.5 mM Tris-HCl pH 7.5.

Substrate in data set [2]: Nc1nc2c(ncn2[C@H]2C[C@H](O)[C@@H](CO[P@](=O)(O)OP(=O)(O)O)O2)c(=O)[nH]1
Put plainly: purified protein. The class given is biochemical, Plasmodium falciparum. The settings on record: 5 mM PEP, 10 mM MgCl2, 50 mM KCl, 26.5 mM Tris-HCl pH 7.5.

Substrate in data set [3]: Nc1nc2c(ncn2[C@@H]2O[C@H](COP(=O)(O)OP(=O)(O)O)[C@@H](O)[C@H]2O)c(=O)[nH]1
Put plainly: purified protein. It is filed as biochemical, Plasmodium falciparum. The settings on record: 5 mM PEP, 10 mM MgCl2, 50 mM KCl, 26.5 mM Tris-HCl pH 7.5.

Substrate in data set [4]: Nc1ncnc2c1ncn2[C@@H]1O[C@H](COP(=O)(O)OP(=O)(O)O)[C@@H](O)[C@H]1O
Put plainly: purified protein. It is filed as biochemical, Plasmodium falciparum. The settings on record: 5 mM PEP, 10 mM MgCl2, 50 mM KCl, 26.5 mM Tris-HCl pH 7.5.

Substrate in data set [5]: Nc1ncnc2c1ncn2[C@H]1C[C@H](O)[C@@H](COP(=O)(O)OP(=O)(O)O)O1
Put plainly: purified protein. The class given is biochemical, Plasmodium falciparum. The settings on record: 5 mM PEP, 10 mM MgCl2, 50 mM KCl, 26.5 mM Tris-HCl pH 7.5.

Substrate in data set [6]: O=c1ccn([C@@H]2O[C@H](COP(=O)(O)OP(=O)(O)O)[C@@H](O)[C@H]2O)c(=O)[nH]1
Put plainly: purified protein. The class given is biochemical, Plasmodium falciparum. The settings on record: 5 mM PEP, 10 mM MgCl2, 50 mM KCl, 26.5 mM Tris-HCl pH 7.5.

Substrate in data set [7]: Nc1ccn([C@@H]2O[C@H](COP(=O)(O)OP(=O)(O)O)[C@@H](O)[C@H]2O)c(=O)n1
Put plainly: purified protein. The class given is biochemical, Plasmodium falciparum. The settings on record: 5 mM PEP, 10 mM MgCl2, 50 mM KCl, 26.5 mM Tris-HCl pH 7.5.

Substrate in data set [8]: Nc1ccn([C@H]2C[C@H](O)[C@@H](COP(=O)(O)OP(=O)(O)O)O2)c(=O)n1
Put plainly: purified protein. The class given is biochemical, Plasmodium falciparum. The settings on record: 5 mM PEP, 10 mM MgCl2, 50 mM KCl, 26.5 mM Tris-HCl pH 7.5.

Regarding `C=C(OP(=O)(O)O)C(=O)O` [PEP], the Km in data set [1] was 0.64+ / - 0.05 mM.

B1: PyrKII (P. falciparum pyruvate kinase II; His-PyrKII) (Plasmodium falciparum 3D7) (protein)
chain: T1 sequence (Q8IJ37 42-745)
notes: residues 42-745 (predicted mature protein, apicoplast trafficking peptide removed); synthetic codon-harmonized gene; MBP-TEV-His6 fusion from E. coli BL21 Star (DE3), MBP cut by TEV, N-terminal His6 kept; 83,014 Da
Consider B1, for which the kcat in the data set “purified protein [2]” is 1.5 ± 0.0833 s⁻¹; in “purified protein [3]” it was 6.62 ± 0.75 s⁻¹; in “purified protein [4]” it was 13.2 ± 3.1 s⁻¹; in the data set “purified protein [5]”, 6.68 ± 0.517 s⁻¹; in the data set “purified protein [6]” it was 4.2 ± 0.667 s⁻¹; in the data set “purified protein [7]” it was 7.3 ± 1.15 s⁻¹. Besides, in the data set “purified protein [8]”, the kcat came to 1.3 ± 0.05 s⁻¹. The kcat/Km in “purified protein [2]” was determined as 5300 M⁻¹ s⁻¹; in the data set “purified protein [3]”, 98200 M⁻¹ s⁻¹; in the data set “purified protein [4]” it was 53300 M⁻¹ s⁻¹; in the data set “purified protein [5]” it was 17800 M⁻¹ s⁻¹; in “purified protein [6]” it was 5100 M⁻¹ s⁻¹; in “purified protein [7]” it was 7200 M⁻¹ s⁻¹. For the same molecule, the kcat/Km in “purified protein [8]” worked out at 2480 M⁻¹ s⁻¹.
